Tests used:
[1] = target: T1, LAG-3 (lymphocyte activation gene 3) (Homo sapiens, UniProt P18627 P18627:23-450); assay: pulldown; concentration dependent; nickel beads, qPCR; conditions: tags: His-tagged, attached to nickel coated beads or plate wells
T1 sequence: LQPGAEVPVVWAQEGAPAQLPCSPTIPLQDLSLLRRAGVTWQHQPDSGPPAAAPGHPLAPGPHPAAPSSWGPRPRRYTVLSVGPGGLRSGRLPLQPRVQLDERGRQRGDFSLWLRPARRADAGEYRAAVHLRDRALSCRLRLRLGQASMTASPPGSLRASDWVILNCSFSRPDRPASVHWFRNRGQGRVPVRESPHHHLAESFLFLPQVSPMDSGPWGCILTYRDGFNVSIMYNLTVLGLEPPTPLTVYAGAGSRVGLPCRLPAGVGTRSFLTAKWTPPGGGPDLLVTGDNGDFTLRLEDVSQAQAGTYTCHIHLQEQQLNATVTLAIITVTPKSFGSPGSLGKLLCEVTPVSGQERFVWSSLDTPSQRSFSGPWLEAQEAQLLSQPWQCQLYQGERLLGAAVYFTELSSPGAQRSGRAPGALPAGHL
Procedure: (§1) To directly test binding of LAG-3 aptamers to LAG-3, in vitro binding assays were performed using His-tagged recombinant LAG-3 attached to nickel coated beads or nickel coated wells of a plate. Bound LAG-3 aptamers were eluted and detected by qPCR. Using the bead based assay, binding of aptamers B4 and B8 to recombinant LAG-3 increased in a concentration dependent manner. FIG. 1C. […] FIG. 1D.

[2] = target: T1, LAG-3 (lymphocyte activation gene 3); assay: pulldown; His-LAG-3 on nickel beads, qPCR; conditions: tags: His-tagged, attached to nickel coated beads or plate wells; label: 5'-biotin
Procedure: as §1
To identify the minimal sequence of aptamer B4 that is involved in binding to LAG-3, various truncated versions of aptamer B4 were prepared and their binding activities to LAG-3 were investigated in the binding assays described herein, using R9R as a negative control. Aptamer sequences of these truncated versions of aptamer B4 and their dissociation constants (Kds) for binding to recombinant LAG-3 are shown in Table 2. Binding of aptamers B4, B4-SL2, B4-SL3, and B4-SL4 to recombinant LAG-3 increased in a concentration dependent manner. FIG. 1E. […] FIG. 1E.

[3] = target: T1, LAG-3 (lymphocyte activation gene 3); assay: pulldown; His-LAG-3 on nickel beads, bound aptamer eluted and detected by qPCR; conditions: tags: His-tagged, attached to nickel coated beads or plate wells; label: 5'-biotin

Binder	Kd [2]	further results
B8 (ssDNA) DNA: TCCCTACGGCGCTAACTGGGGGGGGGTTAGACTTACACTCTTATTCGGCCACCGTGCTACAAC	–	binding result [1]: binds
ACGGCGCTAACTGGGGGGGGTTAGTTCAATACATG (ssDNA) [5'Bio-B4-SL2]	8.05 nM	–
5'Bio-B4 (ssDNA) DNA: TCCCTACGGCGCTAACTGGGGGGGGTTAGTTCAATACATGCGGGCGGCCACCGTGCTACAAC	–	Kd [3]: 38.1 nM
GCTAACTGGGGGGGGTTAGTTCAATACATGCGGGC (ssDNA) [5'Bio-B4-SL3]	10.7 nM	–
CTGGGGGGGGTTAGTTCAATACATGCGGGCGGCCA (ssDNA) [5'Bio-B4-SL4]	9.47 nM	–

— US20210115447, “NUCLEIC ACID APTAMERS TARGETING LYMPHOCYTE ACTIVATION GENE 3 (LAG-3) AND USES THEREOF” (Oneness Biotech Co., Ltd., published 2021)
